Experimental data reported in US20190225650A1, “PEPTIDOMIMETIC MACROCYCLES AND USE THEREOF IN REGULATING HIF1ALPHA” (AILERON THERAPEUTICS, INC., priority 2013, published 2019).
Bridge positions count the residues as written; N and C are the ends. Square brackets hold non-standard residues; d marks the D form. S5 = C=CCCC[C@](C)(N)C(=O)O; Nle = CCCC[C@H](N)C(=O)O; Dap = NC[C@H](N)C(=O)O

target: T1, His6-tagged p300 (AA 323-423) (UniProt Q09472 323-423); experiment: TR-FRET HIF1a/p300 displacement; grade = IC50 >700 nM
T1 construct: range 323-423; also called p300-CH; not shown: His6 tag
Summary of the method: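 Peptides competed with HIF1α C-terminal transactivation domain for His6-p300-CH (complex 300 nM final) during 1 h at RT in 20 mM HEPES pH 7.4, 150 mM NaCl, 7.5 mM CHAPS, 1 mM DTT. Anti-Flag-K (0.5 μM) and anti-His-D2 (4 nM) were added for 2 h. IC50 was derived from the TR-FRET ratio by one-site fit.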

T1 sequence (Q09472 323-423 limits assumed): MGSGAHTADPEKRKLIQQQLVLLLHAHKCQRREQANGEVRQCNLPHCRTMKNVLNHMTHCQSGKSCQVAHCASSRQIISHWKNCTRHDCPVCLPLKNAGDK

Binder | IC50
Ac-FIDEEVL[Nle][S5]LVI[S5][Nle]ALDSI-NH2 (staple 9-13; SMILES CCCC[C@H](NC(=O)[C@H](CC(C)C)NC(=O)[C@@H](NC(=O)[C@H](CCC(=O)O)NC(=O)[C@H](CCC(=O)O)NC(=O)[C@H](CC(=O)O)NC(=O)[C@@H](NC(=O)[C@H](Cc1ccccc1)NC(C)=O)[C@@H](C)CC)C(C)C)C(=O)N[C@@]1(C)CCCC=CCCC[C@@](C)(C(=O)N[C@@H](CCCC)C(=O)N[C@@H](C)C(=O)N[C@@H](CC(C)C)C(=O)N[C@@H](CC(=O)O)C(=O)N[C@@H](CO)C(=O)N[C@H](C(N)=O)[C@@H](C)CC)NC(=O)[C@H]([C@@H](C)CC)NC(=O)[C@H](C(C)C)NC(=O)[C@H](CC(C)C)NC1=O) [SP-58] | > 700 nM
Ac-FIDEEVS[Nle][S5]LVI[S5][Nle]ALDRI-NH2 (staple 9-13; SMILES CCCC[C@H](NC(=O)[C@H](CO)NC(=O)[C@@H](NC(=O)[C@H](CCC(=O)O)NC(=O)[C@H](CCC(=O)O)NC(=O)[C@H](CC(=O)O)NC(=O)[C@@H](NC(=O)[C@H](Cc1ccccc1)NC(C)=O)[C@@H](C)CC)C(C)C)C(=O)N[C@@]1(C)CCCC=CCCC[C@@](C)(C(=O)N[C@@H](CCCC)C(=O)N[C@@H](C)C(=O)N[C@@H](CC(C)C)C(=O)N[C@@H](CC(=O)O)C(=O)N[C@@H](CCCNC(=N)N)C(=O)N[C@H](C(N)=O)[C@@H](C)CC)NC(=O)[C@H]([C@@H](C)CC)NC(=O)[C@H](C(C)C)NC(=O)[C@H](CC(C)C)NC1=O) [SP-49] | > 700 nM
Ac-FIDEESL[Nle][S5]LVI[S5][Nle]ALDRI-NH2 (staple 9-13; SMILES CCCC[C@H](NC(=O)[C@H](CC(C)C)NC(=O)[C@H](CO)NC(=O)[C@H](CCC(=O)O)NC(=O)[C@H](CCC(=O)O)NC(=O)[C@H](CC(=O)O)NC(=O)[C@@H](NC(=O)[C@H](Cc1ccccc1)NC(C)=O)[C@@H](C)CC)C(=O)N[C@@]1(C)CCCC=CCCC[C@@](C)(C(=O)N[C@@H](CCCC)C(=O)N[C@@H](C)C(=O)N[C@@H](CC(C)C)C(=O)N[C@@H](CC(=O)O)C(=O)N[C@@H](CCCNC(=N)N)C(=O)N[C@H](C(N)=O)[C@@H](C)CC)NC(=O)[C@H]([C@@H](C)CC)NC(=O)[C@H](C(C)C)NC(=O)[C@H](CC(C)C)NC1=O) [SP-48] | > 700 nM
Ac-FIDEEVL[Nle][S5]LSI[S5][Nle]ALDRI-NH2 (staple 9-13; SMILES CCCC[C@H](NC(=O)[C@H](CC(C)C)NC(=O)[C@@H](NC(=O)[C@H](CCC(=O)O)NC(=O)[C@H](CCC(=O)O)NC(=O)[C@H](CC(=O)O)NC(=O)[C@@H](NC(=O)[C@H](Cc1ccccc1)NC(C)=O)[C@@H](C)CC)C(C)C)C(=O)N[C@@]1(C)CCCC=CCCC[C@@](C)(C(=O)N[C@@H](CCCC)C(=O)N[C@@H](C)C(=O)N[C@@H](CC(C)C)C(=O)N[C@@H](CC(=O)O)C(=O)N[C@@H](CCCNC(=N)N)C(=O)N[C@H](C(N)=O)[C@@H](C)CC)NC(=O)[C@H]([C@@H](C)CC)NC(=O)[C@H](CO)NC(=O)[C@H](CC(C)C)NC1=O) [SP-52] | > 700 nM
Ac-FIDEEVLA[S5]LVI[S5]AALD-NH2 (staple 9-13; SMILES CC[C@H](C)[C@H](NC(=O)[C@H](Cc1ccccc1)NC(C)=O)C(=O)N[C@@H](CC(=O)O)C(=O)N[C@@H](CCC(=O)O)C(=O)N[C@@H](CCC(=O)O)C(=O)N[C@H](C(=O)N[C@@H](CC(C)C)C(=O)N[C@@H](C)C(=O)N[C@@]1(C)CCCC=CCCC[C@@](C)(C(=O)N[C@@H](C)C(=O)N[C@@H](C)C(=O)N[C@@H](CC(C)C)C(=O)N[C@@H](CC(=O)O)C(N)=O)NC(=O)[C@H]([C@@H](C)CC)NC(=O)[C@H](C(C)C)NC(=O)[C@H](CC(C)C)NC1=O)C(C)C) [SP-60] | > 700 nM
Ac-FIDEEVL[Nle][S5]LVI[S5][Nle]ALD[Dap]-NH2 (staple 9-13; SMILES CCCC[C@H](NC(=O)[C@H](CC(C)C)NC(=O)[C@@H](NC(=O)[C@H](CCC(=O)O)NC(=O)[C@H](CCC(=O)O)NC(=O)[C@H](CC(=O)O)NC(=O)[C@@H](NC(=O)[C@H](Cc1ccccc1)NC(C)=O)[C@@H](C)CC)C(C)C)C(=O)N[C@@]1(C)CCCC=CCCC[C@@](C)(C(=O)N[C@@H](CCCC)C(=O)N[C@@H](C)C(=O)N[C@@H](CC(C)C)C(=O)N[C@@H](CC(=O)O)C(=O)N[C@@H](CN)C(N)=O)NC(=O)[C@H]([C@@H](C)CC)NC(=O)[C@H](C(C)C)NC(=O)[C@H](CC(C)C)NC1=O) [SP-68] | > 700 nM
Ac-FIDEEVLS[S5]LVI[S5][Nle]ALDRI-NH2 (staple 9-13; SMILES CCCC[C@H](NC(=O)[C@]1(C)CCCC=CCCC[C@](C)(NC(=O)[C@H](CO)NC(=O)[C@H](CC(C)C)NC(=O)[C@@H](NC(=O)[C@H](CCC(=O)O)NC(=O)[C@H](CCC(=O)O)NC(=O)[C@H](CC(=O)O)NC(=O)[C@@H](NC(=O)[C@H](Cc2ccccc2)NC(C)=O)[C@@H](C)CC)C(C)C)C(=O)N[C@@H](CC(C)C)C(=O)N[C@@H](C(C)C)C(=O)N[C@@H]([C@@H](C)CC)C(=O)N1)C(=O)N[C@@H](C)C(=O)N[C@@H](CC(C)C)C(=O)N[C@@H](CC(=O)O)C(=O)N[C@@H](CCCNC(=N)N)C(=O)N[C@H](C(N)=O)[C@@H](C)CC) [SP-50] | > 700 nM

Results, then the binder that gave them:

IC50 | Binder
> 700 nM | Ac-FI[Dap]EEVL[Nle][S5]LVI[S5][Nle]ALDRI-NH2 (staple 9-13; SMILES CCCC[C@H](NC(=O)[C@H](CC(C)C)NC(=O)[C@@H](NC(=O)[C@H](CCC(=O)O)NC(=O)[C@H](CCC(=O)O)NC(=O)[C@H](CN)NC(=O)[C@@H](NC(=O)[C@H](Cc1ccccc1)NC(C)=O)[C@@H](C)CC)C(C)C)C(=O)N[C@@]1(C)CCCC=CCCC[C@@](C)(C(=O)N[C@@H](CCCC)C(=O)N[C@@H](C)C(=O)N[C@@H](CC(C)C)C(=O)N[C@@H](CC(=O)O)C(=O)N[C@@H](CCCNC(=N)N)C(=O)N[C@H](C(N)=O)[C@@H](C)CC)NC(=O)[C@H]([C@@H](C)CC)NC(=O)[C@H](C(C)C)NC(=O)[C@H](CC(C)C)NC1=O) [SP-62]
> 700 nM | Ac-FIDEE[Dap]L[Nle][S5]LVI[S5][Nle]ALDRI-NH2 (staple 9-13; SMILES CCCC[C@H](NC(=O)[C@H](CC(C)C)NC(=O)[C@H](CN)NC(=O)[C@H](CCC(=O)O)NC(=O)[C@H](CCC(=O)O)NC(=O)[C@H](CC(=O)O)NC(=O)[C@@H](NC(=O)[C@H](Cc1ccccc1)NC(C)=O)[C@@H](C)CC)C(=O)N[C@@]1(C)CCCC=CCCC[C@@](C)(C(=O)N[C@@H](CCCC)C(=O)N[C@@H](C)C(=O)N[C@@H](CC(C)C)C(=O)N[C@@H](CC(=O)O)C(=O)N[C@@H](CCCNC(=N)N)C(=O)N[C@H](C(N)=O)[C@@H](C)CC)NC(=O)[C@H]([C@@H](C)CC)NC(=O)[C@H](C(C)C)NC(=O)[C@H](CC(C)C)NC1=O) [SP-64]
> 700 nM | Ac-FIDE[Dap]VL[Nle][S5]LVI[S5][Nle]ALDRI-NH2 (staple 9-13; SMILES CCCC[C@H](NC(=O)[C@H](CC(C)C)NC(=O)[C@@H](NC(=O)[C@H](CN)NC(=O)[C@H](CCC(=O)O)NC(=O)[C@H](CC(=O)O)NC(=O)[C@@H](NC(=O)[C@H](Cc1ccccc1)NC(C)=O)[C@@H](C)CC)C(C)C)C(=O)N[C@@]1(C)CCCC=CCCC[C@@](C)(C(=O)N[C@@H](CCCC)C(=O)N[C@@H](C)C(=O)N[C@@H](CC(C)C)C(=O)N[C@@H](CC(=O)O)C(=O)N[C@@H](CCCNC(=N)N)C(=O)N[C@H](C(N)=O)[C@@H](C)CC)NC(=O)[C@H]([C@@H](C)CC)NC(=O)[C@H](C(C)C)NC(=O)[C@H](CC(C)C)NC1=O) [SP-63]
> 700 nM | Ac-FSDEEVL[Nle][S5]LVI[S5][Nle]ALDRI-NH2 (staple 9-13; SMILES CCCC[C@H](NC(=O)[C@H](CC(C)C)NC(=O)[C@@H](NC(=O)[C@H](CCC(=O)O)NC(=O)[C@H](CCC(=O)O)NC(=O)[C@H](CC(=O)O)NC(=O)[C@H](CO)NC(=O)[C@H](Cc1ccccc1)NC(C)=O)C(C)C)C(=O)N[C@@]1(C)CCCC=CCCC[C@@](C)(C(=O)N[C@@H](CCCC)C(=O)N[C@@H](C)C(=O)N[C@@H](CC(C)C)C(=O)N[C@@H](CC(=O)O)C(=O)N[C@@H](CCCNC(=N)N)C(=O)N[C@H](C(N)=O)[C@@H](C)CC)NC(=O)[C@H]([C@@H](C)CC)NC(=O)[C@H](C(C)C)NC(=O)[C@H](CC(C)C)NC1=O) [SP-45]
> 700 nM | Ac-FIDEQVL[Nle][S5]LVI[S5][Nle]ALDRI-NH2 (staple 9-13; SMILES CCCC[C@H](NC(=O)[C@H](CC(C)C)NC(=O)[C@@H](NC(=O)[C@H](CCC(N)=O)NC(=O)[C@H](CCC(=O)O)NC(=O)[C@H](CC(=O)O)NC(=O)[C@@H](NC(=O)[C@H](Cc1ccccc1)NC(C)=O)[C@@H](C)CC)C(C)C)C(=O)N[C@@]1(C)CCCC=CCCC[C@@](C)(C(=O)N[C@@H](CCCC)C(=O)N[C@@H](C)C(=O)N[C@@H](CC(C)C)C(=O)N[C@@H](CC(=O)O)C(=O)N[C@@H](CCCNC(=N)N)C(=O)N[C@H](C(N)=O)[C@@H](C)CC)NC(=O)[C@H]([C@@H](C)CC)NC(=O)[C@H](C(C)C)NC(=O)[C@H](CC(C)C)NC1=O) [SP-69]
